Measurements published in the Human Domainome abundance scans (Beltran et al. 2025).
± gives the uncertainty stated by the source.

B1: Retinoic acid receptor RXR-alpha, residues 132 to 208; numbered along this chain, P19793 (parent)
chain: KHICAICGDRSSGKHYGVYSCEGCKGFFKRTVRKDLTYTCRDNKDCLIDKRQRNRCQYCRYQKCLAMGMKREAVQEE
B2: Friend leukemia integration 1 transcription factor, residues 116 to 197; numbered along this chain, Q01543 (parent)
chain: NMTTNERRVIVPADPTLWTQEHVRQWLEWAIKEYSLMEIDTSFFQNMDGKELCKMNKEDFLRATTLYNTEVLLSHLSYLRES

Variants of: B1
Test: abundance fitness (aPCA) (normalised: wild type 0, dead -1); higher = more abundant; growth selection in yeast, the domain comes from the species named
Details: Homo sapiens

Row | Variant | abundance fitness
1 | KHICAICGDRSSGKHYGVYSCEGCKGFFKRTVRKDLTYTCRDNKDCLIDKRQRNRCQYCRYQKCLAMGMKREAVREE | 0.003 ± 0.031
2 | KHICAICGDRSSGKHYGVYSCEGCKGFFKRTVRKDLTYTCRDNKDCLIDKRQRNRCQYCRYQKCLAMGMKREAVKEE | -0.047 ± 0.05
3 | KHICAICGDRSSGKHYGVYSCEGCKGFFKRTVRKDLTYTCRDNKDCLIDKRQRNRCQYCRYQKCLAMGMKREAVCEE | 0.026 ± 0.041
4 | KHICAICGDRSSGKHYGVYSCEGCKGFFKRTVRKDLTYTCRDNKDCLIDKRQRNRCQYCRYQKCLAMGMKREAVMEE | 0.043 ± 0.036
5 | KHICAICGDRSSGKHYGVYSCEGCKGFFKRTVRKDLTYTCRDNKDCLIDKRQRNRCQYCRYQKCLAMGMKREAVIEE | -0.014 ± 0.033
6 | KHICAICGDRSSGKHYGVYSCEGCKGFFKRTVRKDLTYTCRDNKDCLIDKRQRNRCQYCRYQKCLAMGMKREAVYEE | -0.092 ± 0.036
7 | KHICAICGDRSSGKHYGVYSCEGCKGFFKRTVRKDLTYTCRDNKDCLIDKRQRNRCQYCRYQKCLAMGMKREAVFEE | -0.039 ± 0.034
8 | KHICAICGDRSSGKHYGVYSCEGCKGFFKRTVRKDLTYTCRDNKDCLIDKRQRNRCQYCRYQKCLAMGMKREAVSEE | -0.004 ± 0.028
9 | KHICAICGDRSSGKHYGVYSCEGCKGFFKRTVRKDLTYTCRDNKDCLIDKRQRNRCQYCRYQKCLAMGMKREAVNEE | -0.052 ± 0.037
10 | KHICAICGDRSSGKHYGVYSCEGCKGFFKRTVRKDLTYTCRDNKDCLIDKRQRNRCQYCRYQKCLAMGMKREAVTEE | -0.011 ± 0.028
11 | KHICAICGDRSSGKHYGVYSCEGCKGFFKRTVRKDLTYTCRDNKDCLIDKRQRNRCQYCRYQKCLAMGMKREAVPEE | -0.002 ± 0.033
12 | KHICAICGDRSSGKHYGVYSCEGCKGFFKRTVRKDLTYTCRDNKDCLIDKRQRNRCQYCRYQKCLAMGMKREAVHEE | -0.049 ± 0.032
13 | KHICAICGDRSSGKHYGVYSCEGCKGFFKRTVRKDLTYTCRDNKDCLIDKRQRNRCQYCRYQKCLAMGMKREAVWEE | -0.129 ± 0.054
14 | KHICAICGDRSSGKHYGVYSCEGCKGFFKRTVRKDLTYTCRDNKDCLIDKRQRNRCQYCRYQKCLAMGMKREAVVEE | 0.013 ± 0.034
15 | KHICAICGDRSSGKHYGVYSCEGCKGFFKRTVRKDLTYTCRDNKDCLIDKRQRNRCQYCRYQKCLAMGMKREAVDEE | 0.022 ± 0.041
16 | KHICAICGDRSSGKHYGVYSCEGCKGFFKRTVRKDLTYTCRDNKDCLIDKRQRNRCQYCRYQKCLAMGMKREAVGEE | -0.006 ± 0.04
17 | KHICAICGDRSSGKHYGVYSCEGCKGFFKRTVRKDLTYTCRDNKDCLIDKRQRNRCQYCRYQKCLAMGMKREAVLEE | -0.031 ± 0.028
18 | KHICAICGDRSSGKHYGVYSCEGCKGFFKRTVRKDLTYTCRDNKDCLIDKRQRNRCQYCRYQKCLAMGMKREAVEEE | 0.073 ± 0.05
19 | KHICAICGDRSSGKHYGVYSCEGCKGFFKRTVRKDLTYTCRDNKDCLIDKRQRNRCQYCRYQKCLAMGMKREAVQHE | -0.012 ± 0.036
20 | KHICAICGDRSSGKHYGVYSCEGCKGFFKRTVRKDLTYTCRDNKDCLIDKRQRNRCQYCRYQKCLAMGMKREAVQME | -0.036 ± 0.042
21 | KHICAICGDRSSGKHYGVYSCEGCKGFFKRTVRKDLTYTCRDNKDCLIDKRQRNRCQYCRYQKCLAMGMKREAVQWE | -0.052 ± 0.053
22 | KHICAICGDRSSGKHYGVYSCEGCKGFFKRTVRKDLTYTCRDNKDCLIDKRQRNRCQYCRYQKCLAMGMKREAVQFE | 0.003 ± 0.035
23 | KHICAICGDRSSGKHYGVYSCEGCKGFFKRTVRKDLTYTCRDNKDCLIDKRQRNRCQYCRYQKCLAMGMKREAVQNE | 0.022 ± 0.037
24 | KHICAICGDRSSGKHYGVYSCEGCKGFFKRTVRKDLTYTCRDNKDCLIDKRQRNRCQYCRYQKCLAMGMKREAVQTE | -0.049 ± 0.032
25 | KHICAICGDRSSGKHYGVYSCEGCKGFFKRTVRKDLTYTCRDNKDCLIDKRQRNRCQYCRYQKCLAMGMKREAVQGE | 0.05 ± 0.038
26 | KHICAICGDRSSGKHYGVYSCEGCKGFFKRTVRKDLTYTCRDNKDCLIDKRQRNRCQYCRYQKCLAMGMKREAVQPE | -0.054 ± 0.034

Row | Variant | abundance fitness
27 | KHICAICGDRSSGKHYGVYSCEGCKGFFKRTVRKDLTYTCRDNKDCLIDKRQRNRCQYCRYQKCLAMGMKREAVQRE | -0.037 ± 0.036
28 | KHICAICGDRSSGKHYGVYSCEGCKGFFKRTVRKDLTYTCRDNKDCLIDKRQRNRCQYCRYQKCLAMGMKREAVQSE | -0.034 ± 0.029
29 | KHICAICGDRSSGKHYGVYSCEGCKGFFKRTVRKDLTYTCRDNKDCLIDKRQRNRCQYCRYQKCLAMGMKREAVQLE | 0.01 ± 0.028
30 | KHICAICGDRSSGKHYGVYSCEGCKGFFKRTVRKDLTYTCRDNKDCLIDKRQRNRCQYCRYQKCLAMGMKREAVQYE | -0.011 ± 0.035
31 | KHICAICGDRSSGKHYGVYSCEGCKGFFKRTVRKDLTYTCRDNKDCLIDKRQRNRCQYCRYQKCLAMGMKREAVQQE | 0.001 ± 0.044
32 | KHICAICGDRSSGKHYGVYSCEGCKGFFKRTVRKDLTYTCRDNKDCLIDKRQRNRCQYCRYQKCLAMGMKREAVQKE | -0.099 ± 0.06
33 | KHICAICGDRSSGKHYGVYSCEGCKGFFKRTVRKDLTYTCRDNKDCLIDKRQRNRCQYCRYQKCLAMGMKREAVQDE | 0.05 ± 0.041
34 | KHICAICGDRSSGKHYGVYSCEGCKGFFKRTVRKDLTYTCRDNKDCLIDKRQRNRCQYCRYQKCLAMGMKREAVQCE | 0.023 ± 0.044
35 | KHICAICGDRSSGKHYGVYSCEGCKGFFKRTVRKDLTYTCRDNKDCLIDKRQRNRCQYCRYQKCLAMGMKREAVQVE | 0 ± 0.035
36 | KHICAICGDRSSGKHYGVYSCEGCKGFFKRTVRKDLTYTCRDNKDCLIDKRQRNRCQYCRYQKCLAMGMKREAVQED | -0.002 ± 0.05
37 | KHICAICGDRSSGKHYGVYSCEGCKGFFKRTVRKDLTYTCRDNKDCLIDKRQRNRCQYCRYQKCLAMGMKREAVQEG | 0.073 ± 0.038
38 | KHICAICGDRSSGKHYGVYSCEGCKGFFKRTVRKDLTYTCRDNKDCLIDKRQRNRCQYCRYQKCLAMGMKREAVQEN | 0.065 ± 0.049
39 | KHICAICGDRSSGKHYGVYSCEGCKGFFKRTVRKDLTYTCRDNKDCLIDKRQRNRCQYCRYQKCLAMGMKREAVQEM | -0.034 ± 0.057
40 | KHICAICGDRSSGKHYGVYSCEGCKGFFKRTVRKDLTYTCRDNKDCLIDKRQRNRCQYCRYQKCLAMGMKREAVQEH | 0.02 ± 0.039
41 | KHICAICGDRSSGKHYGVYSCEGCKGFFKRTVRKDLTYTCRDNKDCLIDKRQRNRCQYCRYQKCLAMGMKREAVQER | 0.003 ± 0.035
42 | KHICAICGDRSSGKHYGVYSCEGCKGFFKRTVRKDLTYTCRDNKDCLIDKRQRNRCQYCRYQKCLAMGMKREAVQEK | 0.008 ± 0.077
43 | KHICAICGDRSSGKHYGVYSCEGCKGFFKRTVRKDLTYTCRDNKDCLIDKRQRNRCQYCRYQKCLAMGMKREAVQEL | -0.012 ± 0.039
44 | KHICAICGDRSSGKHYGVYSCEGCKGFFKRTVRKDLTYTCRDNKDCLIDKRQRNRCQYCRYQKCLAMGMKREAVQET | 0.106 ± 0.041
45 | KHICAICGDRSSGKHYGVYSCEGCKGFFKRTVRKDLTYTCRDNKDCLIDKRQRNRCQYCRYQKCLAMGMKREAVQEF | 0.1 ± 0.058
46 | KHICAICGDRSSGKHYGVYSCEGCKGFFKRTVRKDLTYTCRDNKDCLIDKRQRNRCQYCRYQKCLAMGMKREAVQEW | 0.04 ± 0.061
47 | KHICAICGDRSSGKHYGVYSCEGCKGFFKRTVRKDLTYTCRDNKDCLIDKRQRNRCQYCRYQKCLAMGMKREAVQEV | -0.002 ± 0.041
48 | KHICAICGDRSSGKHYGVYSCEGCKGFFKRTVRKDLTYTCRDNKDCLIDKRQRNRCQYCRYQKCLAMGMKREAVQEY | 0.023 ± 0.044
49 | KHICAICGDRSSGKHYGVYSCEGCKGFFKRTVRKDLTYTCRDNKDCLIDKRQRNRCQYCRYQKCLAMGMKREAVQEI | 0.038 ± 0.044
50 | KHICAICGDRSSGKHYGVYSCEGCKGFFKRTVRKDLTYTCRDNKDCLIDKRQRNRCQYCRYQKCLAMGMKREAVQEC | 0.013 ± 0.041
51 | KHICAICGDRSSGKHYGVYSCEGCKGFFKRTVRKDLTYTCRDNKDCLIDKRQRNRCQYCRYQKCLAMGMKREAVQEQ | -0.012 ± 0.055

Variants of: B2
Test: as above
Details: Homo sapiens

Row | Variant | abundance fitness
52 | YMTTNERRVIVPADPTLWTQEHVRQWLEWAIKEYSLMEIDTSFFQNMDGKELCKMNKEDFLRATTLYNTEVLLSHLSYLRES | 0.004 ± 0.3
53 | AMTTNERRVIVPADPTLWTQEHVRQWLEWAIKEYSLMEIDTSFFQNMDGKELCKMNKEDFLRATTLYNTEVLLSHLSYLRES | -0.076 ± 0.25
54 | MMTTNERRVIVPADPTLWTQEHVRQWLEWAIKEYSLMEIDTSFFQNMDGKELCKMNKEDFLRATTLYNTEVLLSHLSYLRES | -0.031 ± 0.19
55 | KMTTNERRVIVPADPTLWTQEHVRQWLEWAIKEYSLMEIDTSFFQNMDGKELCKMNKEDFLRATTLYNTEVLLSHLSYLRES | -0.34 ± 0.35
56 | IMTTNERRVIVPADPTLWTQEHVRQWLEWAIKEYSLMEIDTSFFQNMDGKELCKMNKEDFLRATTLYNTEVLLSHLSYLRES | 0.178 ± 0.41
57 | LMTTNERRVIVPADPTLWTQEHVRQWLEWAIKEYSLMEIDTSFFQNMDGKELCKMNKEDFLRATTLYNTEVLLSHLSYLRES | -0.137 ± 0.45
58 | GMTTNERRVIVPADPTLWTQEHVRQWLEWAIKEYSLMEIDTSFFQNMDGKELCKMNKEDFLRATTLYNTEVLLSHLSYLRES | -0.212 ± 0.14
59 | VMTTNERRVIVPADPTLWTQEHVRQWLEWAIKEYSLMEIDTSFFQNMDGKELCKMNKEDFLRATTLYNTEVLLSHLSYLRES | -0.166 ± 0.12
60 | RMTTNERRVIVPADPTLWTQEHVRQWLEWAIKEYSLMEIDTSFFQNMDGKELCKMNKEDFLRATTLYNTEVLLSHLSYLRES | -0.111 ± 0.2
61 | NQTTNERRVIVPADPTLWTQEHVRQWLEWAIKEYSLMEIDTSFFQNMDGKELCKMNKEDFLRATTLYNTEVLLSHLSYLRES | 0.011 ± 0.16
62 | NLTTNERRVIVPADPTLWTQEHVRQWLEWAIKEYSLMEIDTSFFQNMDGKELCKMNKEDFLRATTLYNTEVLLSHLSYLRES | -0.005 ± 0.07
63 | NDTTNERRVIVPADPTLWTQEHVRQWLEWAIKEYSLMEIDTSFFQNMDGKELCKMNKEDFLRATTLYNTEVLLSHLSYLRES | -0.545 ± 0.48
64 | NKTTNERRVIVPADPTLWTQEHVRQWLEWAIKEYSLMEIDTSFFQNMDGKELCKMNKEDFLRATTLYNTEVLLSHLSYLRES | -0.314 ± 0.14
65 | NETTNERRVIVPADPTLWTQEHVRQWLEWAIKEYSLMEIDTSFFQNMDGKELCKMNKEDFLRATTLYNTEVLLSHLSYLRES | -0.361 ± 0.18
66 | NGTTNERRVIVPADPTLWTQEHVRQWLEWAIKEYSLMEIDTSFFQNMDGKELCKMNKEDFLRATTLYNTEVLLSHLSYLRES | 0.119 ± 0.12
67 | NFTTNERRVIVPADPTLWTQEHVRQWLEWAIKEYSLMEIDTSFFQNMDGKELCKMNKEDFLRATTLYNTEVLLSHLSYLRES | 0.092 ± 0.17
68 | NPTTNERRVIVPADPTLWTQEHVRQWLEWAIKEYSLMEIDTSFFQNMDGKELCKMNKEDFLRATTLYNTEVLLSHLSYLRES | -0.099 ± 0.13
69 | NNTTNERRVIVPADPTLWTQEHVRQWLEWAIKEYSLMEIDTSFFQNMDGKELCKMNKEDFLRATTLYNTEVLLSHLSYLRES | -0.184 ± 0.31
70 | NITTNERRVIVPADPTLWTQEHVRQWLEWAIKEYSLMEIDTSFFQNMDGKELCKMNKEDFLRATTLYNTEVLLSHLSYLRES | -0.081 ± 0.12
